By Kd is commonly meant a measure of binding affinity in units of concentration. For orientation: koff means the rate constant with which the complex falls apart. What is called kon is the rate constant with which the complex forms.

Results on two molecules are retold here after US20260184775A1 (Chugai, published 2026).

In experiment [1] the target is T1, recombinant mouse latent TGF-beta 1 (Flag-tagged mouse latent TGF-beta 1) (mouse, UniProt P04202 34-390).
T1 construct: also called mouse recombinant latent TGF-beta 1
Kind of experiment: SPR, Biacore T200, 37 C, pH 7.4; antibody captured by anti-human Fc, latent TGF-beta 1 at 3.125 to 50 nM as analyte; 1:1 model. On the procedure: (§1) The affinities of anti-latent TGF-beta 1 antibodies binding to human or mouse latent TGF-beta 1 at pH 7.4 were determined at 37 degrees C. using Biacore T200 instrument (GE Healthcare). Anti-human Fc (GE Healthcare) was immobilized onto all flow cells of a CM4 sensor chip using an amine coupling kit (GE Healthcare). All antibodies and analytes were prepared in ACES pH 7.4 containing 20 mM ACES, 150 mM NaCl, 1.2 mM CaCl₂), 0.05% Tween 20, 0.005% NaN3. Each antibody was captured onto the sensor surface by anti-human Fc. Antibody capture levels were aimed at 300 resonance unit (RU). For TBA865 and TBA873, recombinant human or mouse latent TGF-beta 1 was injected at 12.5 to 200 nM prepared by two-fold serial dilution, followed by dissociation. For TBS139 and TBS182, recombinant human or mouse latent TGF-beta 1 was injected at 3.125 to 50 nM prepared by two-fold serial dilution, followed by dissociation. The sensor surface was regenerated each cycle with 3M MgCl2.
On the technique in general: Surface plasmon resonance follows binding to a sensor surface in real time, without labels.

Experiment [2] deals with T2, recombinant human latent TGF-beta 1 (Flag-tagged human latent TGF-beta 1) (human, UniProt P01137 34-390).
T2 construct: Latent form: LAP plus mature TGF-beta 1; also called human recombinant latent TGF-beta 1; SLC
As to the kind of experiment: SPR, Biacore T200, 37 C, pH 7.4; antibody captured by anti-human Fc, latent TGF-beta 1 injected at 3.125 to 50 nM. The protocol: as §1

T1 sequence (P04202 other isoform, or with tags, fused parts or gaps limits assumed): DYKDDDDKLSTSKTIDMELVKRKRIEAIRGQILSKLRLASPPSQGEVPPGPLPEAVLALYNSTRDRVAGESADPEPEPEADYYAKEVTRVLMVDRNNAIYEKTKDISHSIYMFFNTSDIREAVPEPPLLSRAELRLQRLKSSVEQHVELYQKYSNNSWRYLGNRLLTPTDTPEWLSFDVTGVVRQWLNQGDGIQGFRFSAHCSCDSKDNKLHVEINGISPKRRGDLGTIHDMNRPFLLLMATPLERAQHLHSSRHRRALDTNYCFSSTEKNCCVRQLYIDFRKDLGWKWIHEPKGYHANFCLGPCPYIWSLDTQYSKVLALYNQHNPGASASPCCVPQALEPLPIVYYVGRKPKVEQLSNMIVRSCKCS
T2 sequence (P01137 other isoform, or with tags, fused parts or gaps limits assumed): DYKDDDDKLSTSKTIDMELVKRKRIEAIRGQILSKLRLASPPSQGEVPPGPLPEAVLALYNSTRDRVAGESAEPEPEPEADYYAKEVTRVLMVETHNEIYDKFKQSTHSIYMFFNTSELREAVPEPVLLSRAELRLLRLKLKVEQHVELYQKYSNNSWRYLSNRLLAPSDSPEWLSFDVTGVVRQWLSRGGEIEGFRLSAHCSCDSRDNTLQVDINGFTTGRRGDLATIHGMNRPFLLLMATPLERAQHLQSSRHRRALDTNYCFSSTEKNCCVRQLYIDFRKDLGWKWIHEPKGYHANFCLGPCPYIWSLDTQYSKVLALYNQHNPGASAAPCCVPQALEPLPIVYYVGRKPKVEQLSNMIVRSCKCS

B1: TBS182 (antibody, V domains shown)
VH: QSLEESGGDLVKPGASLTLTCTASGFSFSRSYYMCWVRQAPGKGLEWIACIYGGSSGSTWYASWAKGRFTISKTSSTTVTLQMTSLTAADTATYFCARDIGNYYRWWGPGTLVTVSS
VL: AVVLTQTTSPVSAPVGGTVTIKCQASKNIYSLLAWYQQKPGQPPKLLIYDASTLASGVPSRFKGSGSGTQFTLTISDLECADAATYYCQSYYDSSSSADLSTFGGGTEVVVKR
For B1, in experiment [1], the Kd amounted to 0.0482 nM, the koff was found to be 5.32e-05 s⁻¹ and the on-rate (kon) amounted to 1.1e+06 M⁻¹ s⁻¹. In addition, the binding result in experiment [2] is recorded as “no binding (tested: 50 nM)”.

B2: TBS139 (antibody, mouse IgG1, kappa, V domains shown)
VH: QSLEESGGDLVKPGASLTLTCTASGFSFSSYWMSWVRQAPGKGLEYIGMISIIGTTYYASWAKGRFTISKTSSTTVTLQVTSLTAADTATYFCARGYVSNSNYWGLWGPGTLVTVSS
VL: AYDMTQTPASVEVAVGGTVTIKCQASQNIGSNLAWYQQKPGQPPKLLIYYASDLASGVPSRFKGSGSGTRYTLTISGVQCDDAATYYCQQYWSSSNVDNTFGGGTEVVVKR
Regarding B2, in experiment [1], the Kd is 0.0225 nM, the koff is 3.96e-05 s⁻¹ and the kon was found to be 1.76e+06 M⁻¹ s⁻¹. Besides, the binding result in experiment [2] is on record as “no binding (tested: 50 nM)”.
